The values that follow come from patent US20250011456A1 (VILLANELLE LIFE SCIENCE, published 2025).

T1: Recombinant Human CD14/His Protein (B294801) (human, UniProt P08571 20-352, limits assumed)
T1 construct: Bought His-tagged recombinant human CD14; also called recombinant human CD14 antigen; CD14 antigen; not shown: histidine tag
T1 sequence (looked up): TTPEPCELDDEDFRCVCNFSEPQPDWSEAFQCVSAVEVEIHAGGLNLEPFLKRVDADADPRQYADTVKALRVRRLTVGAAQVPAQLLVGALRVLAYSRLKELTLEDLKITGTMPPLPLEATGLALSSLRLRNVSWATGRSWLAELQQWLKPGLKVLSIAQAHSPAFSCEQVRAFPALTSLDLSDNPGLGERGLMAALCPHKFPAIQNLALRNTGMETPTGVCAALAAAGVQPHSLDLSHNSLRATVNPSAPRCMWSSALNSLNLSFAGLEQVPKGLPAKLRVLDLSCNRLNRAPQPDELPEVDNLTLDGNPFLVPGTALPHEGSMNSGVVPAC

B1: Antibody No. D6DD3D013 (HU1127-hVH2/hVL3) (antibody, human IgG1, kappa)
heavy: not shown
light: DIQLTQSPSSLSASVGDRVTITCRASESVDSYVNSFLHWYQQKPGKAPKLLIYRASNLQSGVPSRFSGSGSRTDFTLTISSLQPEDVATYYCQQSNEDPYTFGQGTKLEIKRTVAAPSVFIFPPSDEQLKSGTASVVCLLNNFYPREAKVQWKVDNALQSGNSQESVTEQDSKDSTYSLSSTLTLSKADYEKHKVYACEVTHQGLSSPVTKSFNRGEC
notes: Humanized IgG1 (hFc)
B2: Antibody No. D6DD3D015 (HU1127-hVH4/hVL3) (antibody, human IgG1, kappa)
heavy: not shown
light: B1 light
notes: Humanized IgG1 (hFc)
B3: Antibody No. D6DD3D012 (HU1127-hVH1/hVL3) (antibody, human IgG1, kappa, V domains shown)
VH: QVQLQESGPGLVKPSQTLSLTCTVSGGSISSDSAWNWIRQHPGKGLEWIGYISYSGSTSYNPSLKSRVTISRDTSKNQFSLKLSSVTAADTAVYYCVRGLRFAYWGQGTLVTVSS
VL: DIQLTQSPSSLSASVGDRVTITCRASESVDSYVNSFLHWYQQKPGKAPKLLIYRASNLQSGVPSRFSGSGSRTDFTLTISSLQPEDVATYYCQQSNEDPYTFGQGTKLEIKR
notes: Humanized IgG1 (hFc)
B4: Antibody No. D6DD3D014 (HU1127-hVH3/hVL3) (antibody, human IgG1, kappa)
heavy: not shown
light: B1 light
notes: Humanized IgG1 (hFc); Parent of the PTM-site-removed antibodies MPDDAD001-005
B5: Antibody No. D6DD3D016 (HU1127-hVH5/hVL3) (antibody, human IgG1, kappa)
heavy: not shown
light: B1 light
notes: Humanized IgG1 (hFc)
B6: Antibody No. D6DD3D008 (HU1127-hVH2/hVL2) (antibody, human IgG1, kappa)
heavy: not shown
light: DIVLTQSPDSLAVSLGERATINCRASESVDSYVNSFLHWYQQKPGQPPKLLIYRASNLQSGVPDRFSGSGSRTDFTLTISSLQAEDVAVYYCQQSNEDPYTFGQGTKLEIKRTVAAPSVFIFPPSDEQLKSGTASVVCLLNNFYPREAKVQWKVDNALQSGNSQESVTEQDSKDSTYSLSSTLTLSKADYEKHKVYACEVTHQGLSSPVTKSFNRGEC
notes: Humanized IgG1 (hFc)
B7: Antibody No. D6DD3D009 (HU1127-hVH3/hVL2) (antibody, human IgG1, kappa)
heavy: not shown
light: B6 light
notes: Humanized IgG1 (hFc)
B8: Antibody No. D6DD3D011 (HU1127-hVH5/hVL2) (antibody, human IgG1, kappa)
heavy: not shown
light: B6 light
notes: Humanized IgG1 (hFc)
B9: Antibody No. D6DD3D007 (HU1127-hVH1/hVL2) (antibody, human IgG1, kappa, V domains shown)
VH: B3 VH
VL: DIVLTQSPDSLAVSLGERATINCRASESVDSYVNSFLHWYQQKPGQPPKLLIYRASNLQSGVPDRFSGSGSRTDFTLTISSLQAEDVAVYYCQQSNEDPYTFGQGTKLEIKR
notes: Humanized IgG1 (hFc)
B10: Antibody No. D6DD3D010 (HU1127-hVH4/hVL2) (antibody, human IgG1, kappa)
heavy: not shown
light: B6 light
notes: Humanized IgG1 (hFc)
B11: Antibody No. D6DD3D003 (HU1127-hVH2/hVL1) (antibody, human IgG1, kappa)
heavy: not shown
light: EIVLTQSPATLSLSPGERATLSCRASESVDSYVNSFLHWYQQKPGQAPRLLIYRASNLQSGIPARFSGSGSRTDFTLTISSLEPEDVAVYYCQQSNEDPYTFGQGTKLEIKRTVAAPSVFIFPPSDEQLKSGTASVVCLLNNFYPREAKVQWKVDNALQSGNSQESVTEQDSKDSTYSLSSTLTLSKADYEKHKVYACEVTHQGLSSPVTKSFNRGEC
notes: Humanized IgG1 (hFc)
B12: Antibody No. D6DD3D005 (HU1127-hVH4/hVL1) (antibody, human IgG1, kappa)
heavy: not shown
light: B11 light
notes: Humanized IgG1 (hFc)
B13: Antibody No. D6DD3D002 (HU1127-hVH1/hVL1) (antibody, human IgG1, kappa, V domains shown)
VH: B3 VH
VL: EIVLTQSPATLSLSPGERATLSCRASESVDSYVNSFLHWYQQKPGQAPRLLIYRASNLQSGIPARFSGSGSRTDFTLTISSLEPEDVAVYYCQQSNEDPYTFGQGTKLEIKR
notes: Humanized IgG1 (hFc)
B14: Antibody No. D6DD3D004 (HU1127-hVH3/hVL1) (antibody, human IgG1, kappa)
heavy: not shown
light: B11 light
notes: Humanized IgG1 (hFc)
B15: Antibody No. D6DD3D006 (HU1127-hVH5/hVL1) (antibody, human IgG1, kappa)
heavy: not shown
light: B11 light
notes: Humanized IgG1 (hFc)
B16: Antibody No. MPDDAD001 (HU1127-hVH3/hVL3-1) (antibody, IgG1, V domains shown)
VH: B3 VH with V2L, Q16E, H41P
VL: DIQLTQSPSSLSASVGDRVTITCRASESVDSYVDSFLHWYQQKPGKAPKLLIYRASNLQSGVPSRFSGSGSRTDFTLTISSLQPEDVATYYCQQSNEDPYTFGQGTKLEIK
notes: D6DD3D014 with the light chain PTM site NS (VL amino acids 34, 35) changed to DS; Tested as a recombinant antibody with hFc tag, 144 kDa
B17: Antibody No. MPDDAD004 (HU1127-hVH3/hVL3-4) (antibody, V domains shown)
VH: B3 VH with V2L, Q16E, H41P
VL: B16 VL with D34N, S35A
notes: D6DD3D014 with the light chain PTM site NS (VL amino acids 34, 35) changed to NA; Tested as a recombinant antibody with hFc tag, 144 kDa
B18: Antibody No. MPDDAD002 (HU1127-hVH3/hVL3-2) (antibody, V domains shown)
VH: B3 VH with V2L, Q16E, H41P
VL: B16 VL with D34S
notes: D6DD3D014 with the light chain PTM site NS (VL amino acids 34, 35) changed to SS; Tested as a recombinant antibody with hFc tag, 144 kDa
B19: Antibody No. MPDDAD003 (HU1127-hVH3/hVL3-3) (antibody, V domains shown)
VH: B3 VH with V2L, Q16E, H41P
VL: B16 VL with D34T
notes: D6DD3D014 with the light chain PTM site NS (VL amino acids 34, 35) changed to TS; Tested as a recombinant antibody with hFc tag, 144 kDa

Positions count from the first letter of the chain named.

For one assay, the target named is T1, Recombinant Human CD14/His Protein …. The experiment in a line: SPR (Biacore 8K), antibody captured on Protein A chip, CD14-His analyte 0.78125-25 nM, 1:1 binding. As to the method:
The Biacore 8K platform was used to test the kinetic and affinity properties of the antibody. The operation was carried out according to the system instructions and indications.
15 humanized antibodies (numbered D6DD3D002-D6DD3D0016) and 1 mouse antibody (number D6DD3D001) were tested. […] The capture concentration was 1 μg/mL. In Table 8-3, the change factor is the ratio of the equilibrium dissociation constant KD of the humanized to mouse antibody, and reflects the change in affinity after humanization.
In general, Kd refers to the concentration at which binding is half-saturated. Broadly, the koff is the first-order rate constant of dissociation. One may read the kon as the second-order rate constant of association. Turning to B1, the “Change Factor (KD relative to mouse antibody D6DD3D001)” value was found to be 3.32, the Kd amounted to 1.61 nM, the koff amounted to 0.00282 s⁻¹ and the kon was determined as 1.76e+06 M⁻¹ s⁻¹.

As for B2, the “Change Factor (KD relative to mouse antibody D6DD3D001)” value was 1.1, the Kd is 0.532 nM, the off-rate (koff) stood at 0.000843 s⁻¹ and the kon amounted to 1.59e+06 M⁻¹ s⁻¹.

With B3, the “Change Factor (KD relative to mouse antibody D6DD3D001)” value stood at 3.69, the Kd is 1.79 nM, the koff came to 0.00293 s⁻¹ and the kon was determined as 1.64e+06 M⁻¹ s⁻¹.

Consider B4, for which the “Change Factor (KD relative to mouse antibody D6DD3D001)” value worked out at 3.71, the Kd was 1.8 nM, the dissociation rate constant (koff) was 0.00318 s⁻¹ and the kon was 1.77e+06 M⁻¹ s⁻¹.

B5: the “Change Factor (KD relative to mouse antibody D6DD3D001)” value amounted to 1.39, the Kd was 0.672 nM, the koff is 0.000904 s⁻¹ and the kon was determined as 1.35e+06 M⁻¹ s⁻¹.

In the case of B6, the “Change Factor (KD relative to mouse antibody D6DD3D001)” value worked out at 3.24, the Kd was 1.57 nM, the koff amounted to 0.00329 s⁻¹ and the kon is 2.09e+06 M⁻¹ s⁻¹.

As to B7, the “Change Factor (KD relative to mouse antibody D6DD3D001)” value was 3.9, the equilibrium dissociation constant (Kd) was found to be 1.89 nM, the koff stood at 0.00379 s⁻¹ and the association rate constant (kon) was determined as 2.01e+06 M⁻¹ s⁻¹.

Turning to B8, the “Change Factor (KD relative to mouse antibody D6DD3D001)” value was determined as 1.32, the Kd stood at 0.639 nM, the koff was determined as 0.00109 s⁻¹ and the kon is 1.71e+06 M⁻¹ s⁻¹.

B9: the “Change Factor (KD relative to mouse antibody D6DD3D001)” value was determined as 3.34, the Kd amounted to 1.62 nM, the off-rate constant (koff) was 0.00342 s⁻¹ and the kon is 2.11e+06 M⁻¹ s⁻¹.

Regarding B10, the “Change Factor (KD relative to mouse antibody D6DD3D001)” value came to 1.14, the Kd is 0.555 nM, the koff was 0.00105 s⁻¹ and the kon is 1.9e+06 M⁻¹ s⁻¹.

As to B11, the “Change Factor (KD relative to mouse antibody D6DD3D001)” value was 3.34, the Kd stood at 1.62 nM, the koff was 0.00295 s⁻¹ and the kon stood at 1.82e+06 M⁻¹ s⁻¹.

As for B12, the “Change Factor (KD relative to mouse antibody D6DD3D001)” value was determined as 1.09, the Kd was found to be 0.529 nM, the koff was 0.000798 s⁻¹ and the kon is 1.51e+06 M⁻¹ s⁻¹.

For the molecule B13, the “Change Factor (KD relative to mouse antibody D6DD3D001)” value came out at 3.57, the Kd was found to be 1.73 nM, the koff was 0.00292 s⁻¹ and the kon was determined as 1.69e+06 M⁻¹ s⁻¹.

Regarding B14, the “Change Factor (KD relative to mouse antibody D6DD3D001)” value worked out at 4.1, the Kd was determined as 1.99 nM, the koff was found to be 0.00326 s⁻¹ and the kon was 1.64e+06 M⁻¹ s⁻¹.

Take B15: the “Change Factor (KD relative to mouse antibody D6DD3D001)” value came to 1.24, the Kd was determined as 0.602 nM, the koff turned out to be 0.000862 s⁻¹ and the kon was 1.43e+06 M⁻¹ s⁻¹.

A further assay has the same target. Briefly: SPR (Biacore 8K), antibody captured (1 ug/mL) on Protein A chip, CD14-His analyte 0.1953125-25 nM, 1:1 binding. As to the method:
The Biacore 8K platform was used to test the kinetic and affinity properties of the antibody, operating according to system instructions and indications.
Results of Affinity Detection. The affinity of the six antibodies was measured at saturation concentration. […] Change factor is described above.
Consider B16, for which the “Change Factor (KD relative to mouse antibody D6DD3D001)” value came to 8.66, the equilibrium dissociation constant (Kd) was 7.48 nM, the koff was determined as 0.00633 s⁻¹ and the kon came to 847000 M⁻¹ s⁻¹.

For B17, the “Change Factor (KD relative to mouse antibody D6DD3D001)” value amounted to 6.86, the Kd is 5.93 nM, the koff is 0.0046 s⁻¹ and the kon came to 775000 M⁻¹ s⁻¹.

As for B18, the “Change Factor (KD relative to mouse antibody D6DD3D001)” value worked out at 3.24, the Kd worked out at 2.8 nM, the koff was 0.00362 s⁻¹ and the kon is 1.29e+06 M⁻¹ s⁻¹.

Turning to B19, the “Change Factor (KD relative to mouse antibody D6DD3D001)” value came to 2.34, the Kd was found to be 2.02 nM, the koff was determined as 0.0026 s⁻¹ and the kon stood at 1.29e+06 M⁻¹ s⁻¹.
